# Experiments:
# Test in all cases: cell-based or functional assay
# [1] = molecular target: HIV-1 MGRM-F1-013 Env (HIV-1)
# [2] = molecular target: HIV-1 Env of isolate THR0.18 (subtype B) (HIV-1)
# [3] = molecular target: HIV-1 Env of isolate 92WR024 (subtype A) (HIV-1)
# [4] = molecular target: HIV-1 92RW008 Env (HIV-1)
# [5] = molecular target: HIV-1 Env of isolate MG RM-C-026 (subtype C) (HIV-1)
# [6] = molecular target: HIV-1 Env of isolate 92UG024 (subtype D) (HIV-1)
# [7] = molecular target: HIV-1 Env of isolate 92WR009 (subtype A) (HIV-1)
# [8] = molecular target: HIV-1 Env of isolate VLGCB3 (subtype B) (HIV-1)
# [9] = molecular target: HIV-1 Env of isolate MGRM-D-014 (subtype D) (HIV-1)
# [10] = molecular target: HIV-1 Env of isolate TRO.11 (subtype B) (HIV-1)
# [11] = molecular target: HIV-1 Env of isolate MGRM-AE-003 (subtype AE) (HIV-1)
# [12] = molecular target: HIV-1 Env of isolate SC422661.8 (subtype B) (HIV-1)
# [13] = molecular target: HIV-1 Env of isolate 98CN009 (subtype CRF07_BC) (HIV-1)
# [14] = molecular target: HIV-1 Env of isolate MGRM-D-004 (subtype D) (HIV-1)
# [15] = molecular target: HIV-1 Env of isolate 92TH021 (subtype AE) (HIV-1)
# [16] = molecular target: HIV-1 Env of isolate MGRM-AE-007 (subtype AE) (HIV-1)
# [17] = molecular target: HIV-1 Env of pseudovirus isolate MGRM-G-028 (subtype G) (HIV-1)
# [18] = molecular target: HIV-1 Env of isolate MG RM-C-027 (subtype C) (HIV-1)
# [19] = molecular target: HIV-1 Env of isolate 93IN905 (subtype C) (HIV-1)
# [20] = molecular target: HIV-1 Env of isolate MGRM-Chronic-B-017 (subtype B) (HIV-1)
# [21] = molecular target: HIV-1 Env of isolate APV_17 (subtype B) (HIV-1)
# [22] = molecular target: HIV-1 Env of isolate MG RM-C-025 (subtype C) (HIV-1)
# [23] = molecular target: HIV-1 Env of isolate MGRM-D-024 (subtype D) (HIV-1)
# [24] = molecular target: HIV-1 Env of isolate MGRM-F1-012 (subtype F) (HIV-1)
# [25] = molecular target: HIV-1 Env of isolate 92UG114 (subtype D) (HIV-1)
# [26] = molecular target: HIV-1 Env of isolate 94UG103 (subtype A) (HIV-1)
# [27] = molecular target: HIV-1 Env of isolate MGRM-AE-005 (subtype AE) (HIV-1)
# [28] = molecular target: HIV-1 Env of isolate 93MW959 (subtype C) (HIV-1)
# [29] = molecular target: HIV-1 Env of isolate MGRM-D-012 (subtype D) (HIV-1)
# [30] = molecular target: HIV-1 Env of pseudovirus isolate MGRM-G-011 (subtype G) (HIV-1)
# [31] = molecular target: HIV-1 Env of isolate MG RM-C-024 (subtype C) (HIV-1)
# [32] = molecular target: HIV-1 Env of isolate MGRM-AE-004 (subtype AE) (HIV-1)
# [33] = molecular target: HIV-1 Env of isolate MGRM-D-002 (subtype D) (HIV-1)
# [34] = molecular target: HIV-1 Env of isolate MGRM-D-019 (subtype D) (HIV-1)
# [35] = molecular target: HIV-1 Env of pseudovirus isolate MGRM-G-019 (subtype G) (HIV-1)
# [36] = molecular target: HIV-1 Env of isolate MGRM-F1-018 (subtype F) (HIV-1)
# [37] = molecular target: HIV-1 Env of isolate 92WR021 (subtype A) (HIV-1)
# [38] = molecular target: HIV-1 Env of isolate 93WR029 (subtype A) (HIV-1)
# [39] = molecular target: HIV-1 Env of isolate MGRM-Chronic-B-012 (subtype B) (HIV-1)
# [40] = molecular target: HIV-1 Env of pseudovirus isolate MGRM-G-016 (subtype G) (HIV-1)
# [41] = molecular target: HIV-1 Env of isolate MGRM-D-011 (subtype D) (HIV-1)
# [42] = molecular target: HIV-1 Env of isolate MGRM-F1-016 (subtype F) (HIV-1)
# [43] = molecular target: HIV-1 Env of isolate 93TH305 (subtype B) (HIV-1)
# [44] = molecular target: HIV-1 Env of isolate TRJ04551.58 (subtype B) (HIV-1)
# [45] = molecular target: HIV-1 Env of isolate APV_6 (subtype B) (HIV-1)
# [46] = molecular target: HIV-1 Env of pseudovirus isolate MGRM-G-009 (subtype G) (HIV-1)
# [47] = molecular target: HIV-1 Env of isolate 92UG046 (subtype D) (HIV-1)
substance,measurement,setting,value
b12 (antibody),IC50 (pseudovirus neutralization),[1],> 50 µg/mL
PGV04 (antibody),"IC50 (µg/mL), pseudovirus neutralization",[2],> 50 µg/mL
same,IC50 (pseudovirus neutralization),[3],0.31 µg/mL
same,IC50,[4],0.014 µg/mL
same,"IC50 (µg/mL), pseudovirus neutralization",[5],0.303 µg/mL
same,IC50 (neutralization),[6],0.201 µg/mL
same,IC50 (pseudovirus neutralization),[7],0.108 µg/mL
same,"IC50 (µg/mL), pseudovirus neutralization",[8],0.045 µg/mL
same,IC50 (pseudovirus neutralization),[9],0.194 µg/mL
same,"IC50 (µg/mL), pseudovirus neutralization",[10],0.121 µg/mL
same,IC50 (pseudovirus neutralization),[11],6.4 µg/mL
same,IC50,[12],0.11 µg/mL
same,IC50 (neutralization),[13],0.0125 µg/mL
same,IC50 (pseudovirus neutralization),[14],43.2 µg/mL
same,IC50 (pseudovirus neutralization),[15],1.29 µg/mL
same,IC50 (pseudovirus neutralization),[16],5.75 µg/mL
same,IC50,[17],0.352 µg/mL
same,"IC50 (µg/mL), pseudovirus neutralization",[18],2.76 µg/mL
same,"IC50 (µg/mL), pseudovirus neutralization",[19],0.332 µg/mL
same,IC50,[20],0.129 µg/mL
same,IC50,[21],0.309 µg/mL
same,"IC50 (µg/mL), pseudovirus neutralization",[22],> 50 µg/mL
same,IC50 (pseudovirus neutralization),[23],> 50 µg/mL
same,IC50 (pseudovirus neutralization),[24],0.25 µg/mL
same,IC50 (pseudovirus neutralization),[25],0.461 µg/mL
same,IC50 (pseudovirus neutralization),[26],0.202 µg/mL
same,IC50 (pseudovirus neutralization),[27],0.051 µg/mL
same,"IC50 (µg/mL), pseudovirus neutralization",[28],> 50 µg/mL
same,IC50 (pseudovirus neutralization),[29],0.125 µg/mL
same,IC50,[30],0.78 µg/mL
same,"IC50 (µg/mL), pseudovirus neutralization",[31],> 50 µg/mL
same,IC50 (pseudovirus neutralization),[32],0.183 µg/mL
same,IC50 (pseudovirus neutralization),[33],0.322 µg/mL
same,IC50 (pseudovirus neutralization),[34],0.35 µg/mL
same,IC50,[35],0.027 µg/mL
same,IC50 (pseudovirus neutralization),[36],0.027 µg/mL
same,IC50 (pseudovirus neutralization),[37],0.038 µg/mL
same,IC50 (pseudovirus neutralization),[38],0.54 µg/mL
same,IC50,[39],> 50 µg/mL
same,IC50,[40],0.019 µg/mL
same,IC50 (pseudovirus neutralization),[41],0.025 µg/mL
same,IC50 (pseudovirus neutralization),[42],0.268 µg/mL
same,IC50,[43],0.255 µg/mL
same,"IC50 (µg/mL), pseudovirus neutralization",[44],0.028 µg/mL
same,IC50,[45],24.2 µg/mL
same,IC50,[46],0.043 µg/mL
same,IC50 (neutralization),[47],22.4 µg/mL
1496_C09 (PG9) (TCN-109) (antibody),"IC50 (µg/mL), pseudovirus neutralization",[2],26.4 µg/mL
same,IC50 (pseudovirus neutralization),[3],0.258 µg/mL
same,IC50,[4],0.006 µg/mL
same,"IC50 (µg/mL), pseudovirus neutralization",[5],0.06 µg/mL
same,IC50 (neutralization),[6],1.86 µg/mL
same,IC50 (pseudovirus neutralization),[7],0.05 µg/mL
same,"IC50 (µg/mL), pseudovirus neutralization",[8],0.022 µg/mL
same,IC50 (pseudovirus neutralization),[9],0.023 µg/mL
same,"IC50 (µg/mL), pseudovirus neutralization",[10],16.9 µg/mL
same,IC50 (pseudovirus neutralization),[11],0.044 µg/mL
same,IC50,[12],1.48 µg/mL
same,IC50 (neutralization),[13],0.371 µg/mL
same,IC50 (pseudovirus neutralization),[14],0.06 µg/mL
same,IC50 (pseudovirus neutralization),[15],0.059 µg/mL
same,IC50 (pseudovirus neutralization),[16],0.18 µg/mL
same,IC50,[17],0.891 µg/mL
same,"IC50 (µg/mL), pseudovirus neutralization",[18],5.36 µg/mL
same,"IC50 (µg/mL), pseudovirus neutralization",[19],0.035 µg/mL
same,IC50,[20],0.688 µg/mL
same,IC50,[21],34.8 µg/mL
same,"IC50 (µg/mL), pseudovirus neutralization",[22],0.148 µg/mL
same,IC50 (pseudovirus neutralization),[23],0.038 µg/mL
same,IC50 (pseudovirus neutralization),[24],0.023 µg/mL
same,IC50 (pseudovirus neutralization),[25],40.6 µg/mL
same,IC50 (pseudovirus neutralization),[26],0.34 µg/mL
same,IC50 (pseudovirus neutralization),[27],0.282 µg/mL
same,"IC50 (µg/mL), pseudovirus neutralization",[28],0.054 µg/mL
same,IC50 (pseudovirus neutralization),[29],16.2 µg/mL
same,IC50,[30],0.335 µg/mL
same,"IC50 (µg/mL), pseudovirus neutralization",[31],0.227 µg/mL
same,IC50 (pseudovirus neutralization),[32],0.009 µg/mL
same,IC50 (pseudovirus neutralization),[33],0.021 µg/mL
same,IC50 (pseudovirus neutralization),[34],0.038 µg/mL
same,IC50,[35],14.6 µg/mL
same,IC50 (pseudovirus neutralization),[36],0.019 µg/mL
same,IC50 (pseudovirus neutralization),[37],0.027 µg/mL
same,IC50 (pseudovirus neutralization),[38],0.69 µg/mL
same,IC50,[39],0.2 µg/mL
same,IC50,[40],1.36 µg/mL
same,IC50 (pseudovirus neutralization),[41],0.071 µg/mL
same,IC50 (pseudovirus neutralization),[42],0.518 µg/mL
same,IC50,[43],8.12 µg/mL
same,"IC50 (µg/mL), pseudovirus neutralization",[44],0.858 µg/mL
same,IC50,[45],0.181 µg/mL
same,IC50,[46],10.7 µg/mL
same,IC50 (pseudovirus neutralization),[1],0.56 µg/mL
same,IC50 (neutralization),[47],1.86 µg/mL
2G12 (antibody),IC50 (pseudovirus neutralization),[1],> 50 µg/mL
VRC01 (antibody),IC50,[2],2.46 µg/mL
same,IC50 (pseudovirus neutralization),[3],0.327 µg/mL
same,IC50,[4],0.037 µg/mL
same,IC50,[5],0.707 µg/mL
same,IC50 (neutralization),[6],0.576 µg/mL
same,IC50 (pseudovirus neutralization),[7],0.187 µg/mL
same,IC50,[8],0.108 µg/mL
same,IC50 (pseudovirus neutralization),[9],0.332 µg/mL
same,IC50,[10],0.186 µg/mL
same,IC50 (pseudovirus neutralization),[11],0.685 µg/mL
same,IC50,[12],0.179 µg/mL
same,IC50 (neutralization),[13],0.346 µg/mL
same,IC50 (pseudovirus neutralization),[14],1.25 µg/mL
same,IC50 (pseudovirus neutralization),[15],0.616 µg/mL
same,IC50 (pseudovirus neutralization),[16],0.835 µg/mL
same,IC50,[17],0.164 µg/mL
same,IC50,[18],0.125 µg/mL
same,IC50,[19],0.138 µg/mL
same,IC50,[20],0.141 µg/mL
same,IC50,[21],0.477 µg/mL
same,IC50,[22],2.36 µg/mL
same,IC50 (pseudovirus neutralization),[23],0.366 µg/mL
same,IC50 (pseudovirus neutralization),[24],0.488 µg/mL
same,IC50 (pseudovirus neutralization),[25],0.33 µg/mL
same,IC50 (pseudovirus neutralization),[26],0.285 µg/mL
same,IC50 (pseudovirus neutralization),[27],0.029 µg/mL
same,IC50,[28],0.053 µg/mL
same,IC50 (pseudovirus neutralization),[29],0.216 µg/mL
same,IC50,[30],0.065 µg/mL
same,IC50,[31],3.4 µg/mL
same,IC50 (pseudovirus neutralization),[32],0.187 µg/mL
same,IC50 (pseudovirus neutralization),[33],0.252 µg/mL
same,IC50 (pseudovirus neutralization),[34],0.119 µg/mL
same,IC50,[35],0.06 µg/mL
same,IC50 (pseudovirus neutralization),[36],0.032 µg/mL
same,IC50 (pseudovirus neutralization),[37],0.066 µg/mL
same,IC50 (pseudovirus neutralization),[38],1.57 µg/mL
same,IC50,[39],1.03 µg/mL
same,IC50,[40],0.063 µg/mL
same,IC50 (pseudovirus neutralization),[41],0.075 µg/mL
same,IC50 (pseudovirus neutralization),[42],0.517 µg/mL
same,IC50,[43],0.243 µg/mL
same,IC50,[44],0.06 µg/mL
same,IC50,[45],1.81 µg/mL
same,IC50,[46],0.073 µg/mL
same,IC50 (neutralization),[47],12.7 µg/mL
1495_C14 (PGC14) (antibody),IC50 (pseudovirus neutralization),[1],6 µg/mL
2F5 (antibody),IC50 (pseudovirus neutralization),[1],4.57 µg/mL

# Source: US20160264649A1
